Results on five molecules are retold here after publication PMC11672854.

Holding throughout (assay): ELISA
On the technique in general: An ELISA detects its analyte on a solid surface through an enzyme-linked reagent.

One experiment concerns the target BSA, P02769. The conditions noted are these: chain shown with the change; plates coated with AGR2 or BSA (control); parent: 101.
In a further experiment the target is PDI (PDIA1), P07237. The note with it: chain shown with the change; plates coated with AGR2 or PDI (PDIA1); parent: 40.
Sequence of PDI (PDIA1), P07237 (P07237 18-508): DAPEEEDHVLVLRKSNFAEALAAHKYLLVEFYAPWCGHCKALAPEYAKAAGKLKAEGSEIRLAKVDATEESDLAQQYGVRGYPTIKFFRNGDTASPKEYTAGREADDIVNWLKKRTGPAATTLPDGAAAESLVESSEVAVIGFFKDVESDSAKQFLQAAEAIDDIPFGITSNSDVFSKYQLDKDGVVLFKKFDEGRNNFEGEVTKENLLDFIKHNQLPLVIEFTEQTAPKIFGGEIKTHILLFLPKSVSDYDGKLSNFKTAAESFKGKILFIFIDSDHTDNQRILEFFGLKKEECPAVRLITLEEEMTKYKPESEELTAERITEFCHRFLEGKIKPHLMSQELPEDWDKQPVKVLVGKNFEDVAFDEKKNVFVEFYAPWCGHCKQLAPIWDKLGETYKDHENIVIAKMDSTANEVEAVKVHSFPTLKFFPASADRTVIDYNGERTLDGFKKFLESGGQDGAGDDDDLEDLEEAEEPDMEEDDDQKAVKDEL
Experiment [1] concerns the target T1, Thioredoxin (TXN), P10599.
T1 chain: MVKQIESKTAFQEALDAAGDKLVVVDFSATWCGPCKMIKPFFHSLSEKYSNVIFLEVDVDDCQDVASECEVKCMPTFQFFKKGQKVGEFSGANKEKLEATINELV
The conditions noted are these: chain shown with the change; plates coated with AGR2 or thioredoxin (TXN); parent: 30.

Experiment [2] has as its target anti-AGR2 monoclonal antibody MAb-15 (VH-VL of scFv-15 in a full human IgG1 backbone). The conditions noted are these: chain shown with the change; point at 1000 pM mAb-15 (highest concentration); plate coated with the AGR2 mutant; parent: est. 2.8; read off a plot.

Numbering of substitutions follows the chain as printed. Names and notes keep the numbering of the source.

Sequence of BSA, P02769 (P02769 25-607): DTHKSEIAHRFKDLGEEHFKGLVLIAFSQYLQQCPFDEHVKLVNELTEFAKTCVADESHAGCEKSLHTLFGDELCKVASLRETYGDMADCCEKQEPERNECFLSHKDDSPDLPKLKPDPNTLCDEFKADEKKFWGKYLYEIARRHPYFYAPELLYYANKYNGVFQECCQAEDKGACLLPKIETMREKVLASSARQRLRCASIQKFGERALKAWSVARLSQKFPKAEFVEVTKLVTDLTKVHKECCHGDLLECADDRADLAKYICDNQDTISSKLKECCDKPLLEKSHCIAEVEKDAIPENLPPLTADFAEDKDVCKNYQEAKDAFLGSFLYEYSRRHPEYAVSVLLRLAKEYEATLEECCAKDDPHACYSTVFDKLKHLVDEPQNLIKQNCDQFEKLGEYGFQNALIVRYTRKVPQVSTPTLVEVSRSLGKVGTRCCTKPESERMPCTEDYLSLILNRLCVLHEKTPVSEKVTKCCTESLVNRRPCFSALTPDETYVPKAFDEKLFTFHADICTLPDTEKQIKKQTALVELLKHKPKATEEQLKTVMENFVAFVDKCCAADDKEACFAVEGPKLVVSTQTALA

B1: anti-AGR2 monoclonal antibody MAb-15 (VH-VL of scFv-15 in a full human IgG1 backbone) S31R; A53Y (protein)
chain 1: EVQLLESGGGLVQPGGSLRLSCAASGFTFSRYAMSWVRQAPGKGLEWVSGISYQGAHTTYADSVKGRFTISRDNSKNTLYLQMNSLRAEDTAVYYCAKTYKGFDYWGQGTLVTVSS
chain 2: DIQMTQSPSSLSASVGDRVTITCRASQSISSYLNWYQQKPGKAPKLLIYSASRLQSGVPSRFSGSGSGTDFTLTISSLQPEDFATYYCQQGRRMPPTFGQGTKVEIK
On to B1, for which the other: AGR2 Specificity, BSA/AGR2 (EC50 relative to AGR2 binding) in the experiment with BSA, P02769 came out at 751. The other: AGR2 Specificity, PDI/AGR2 (EC50 relative to AGR2 binding) in the experiment with PDI (PDIA1), P07237 is 451. Also, in experiment [1], the other: AGR2 Specificity, TXN/AGR2 (EC50 relative to AGR2 binding) worked out at 266.

B2: Anterior Gradient-2 (AGR2/PDIA17), AGR2 (21-175), 6x-His tag removed, O95994 E60A (protein)
chain: RDTTVKPGAKKDTKDSRPKLPQTLSRGWGDQLIWTQTYEAALYKSKTSNKPLMIIHHLDECPHSQALKKVFAENKEIQKLAEQFVLLNLVYETTDKHLSPDGQYVPRIMFVDPSLTVRADITGRYSNRLYAYEPADTALLLDNMKKALKLLKTEL
On to B2, for which the response in experiment [2] came out at 2.3 OD450.

B3: Anterior Gradient-2 (AGR2/PDIA17), AGR2 (21-175), 6x-His tag removed, O95994 C81A; S84A (protein)
chain: B2 chain with A40E, C61A, S64A
B3: in experiment [2], the response came out at 2.3 OD450.

B4: Anterior Gradient-2 (AGR2/PDIA17), AGR2 (21-175), 6x-His tag removed, O95994 C81A (protein)
chain: B2 chain with A40E, C61A
Turning to B4, in experiment [2], the response amounted to 2.8 OD450.

B5: Anterior Gradient-2 (AGR2/PDIA17), AGR2 (21-175), 6x-His tag removed, O95994 S84A (protein)
chain: B2 chain with A40E, S64A
Regarding B5, the response in experiment [2] was determined as 2.7 OD450.
